B1: human calcium sensitive potassium channel β3a subunit (other)
chain: MQPFSIPVQITLQGSRRRQGRTAFPASGKKRETDYSDGDPLDVHKRLPSSTGEDRAVMLGFAMMGFSVLMFFLLGTTILKPFMLSIQREESTCTAIHTDIMDDWLDCAFTCGVHCHGQGKYPCLQVFVNLSHPGQKALLHYNEEAVQINPKCFYTPKCHQDRSDLLNSALDIKEFFDHKNGTPFSCFYSPASQSEDVILIKKYDQMAIFHCLFWPSLTLLGGALIVGMVRLTQHLSLLCEKYSTVVRDEVGGKVPYIEQHQFKLCIMRRSKGRAEKS
B2: human calcium sensitive potassium channel β2 subunit (other)
chain: MFIWTSGRTSSSYRHDEKRNIYQKIRDHDLLDKRKTVTALKAGEDRAILLGLAMMVCSIMMYFLLGITLLRSYMQSVWTEESQCTLLNASITETFNCSFSCGPDCWKLSQYPCLQVYVNLTSSGEKLLLYHTEETIKINQKCSYIPKCGKNFEESMSLVNVVMENFRKYQHFSCYSDPEGNQKSVILTKLYSSNVLFHSLFWPTCMMAGGVAIVAMVKLTQYLSLLCERIQRINR
B3: human calcium sensitive potassium channel β3c subunit (other)
chain: MFPLLYELTAVSPSPFPQRTAFPASGKKRETDYSDGDPLDVHKRLPSSTGEDRAVMLGFAMMGFSVLMFFLLGTTILKPFMLSIQREESTCTAIHTDIMDDWLDCAFTCGVHCHGQGKYPCLQVFVNLSHPGQKALLHYNEEAVQINPKCFYTPKCHQDRSDLLNSALDIKEFFDHKNGTPFSCFYSPASQSEDVILIKKYDQMAIFHCLFWPSLTLLGGALIVGMVRLTQHLSLLCEKYSTVVRDEVGGKVPYIEQHQFKLCIMRRSKGRAEKS

target: human calcium sensitive potassium channel α subunit (human Slowpoke α) (human, UniProt Q12791 1-1236); assay: cell-based or functional assay
Sequence (Q12791 whole entry): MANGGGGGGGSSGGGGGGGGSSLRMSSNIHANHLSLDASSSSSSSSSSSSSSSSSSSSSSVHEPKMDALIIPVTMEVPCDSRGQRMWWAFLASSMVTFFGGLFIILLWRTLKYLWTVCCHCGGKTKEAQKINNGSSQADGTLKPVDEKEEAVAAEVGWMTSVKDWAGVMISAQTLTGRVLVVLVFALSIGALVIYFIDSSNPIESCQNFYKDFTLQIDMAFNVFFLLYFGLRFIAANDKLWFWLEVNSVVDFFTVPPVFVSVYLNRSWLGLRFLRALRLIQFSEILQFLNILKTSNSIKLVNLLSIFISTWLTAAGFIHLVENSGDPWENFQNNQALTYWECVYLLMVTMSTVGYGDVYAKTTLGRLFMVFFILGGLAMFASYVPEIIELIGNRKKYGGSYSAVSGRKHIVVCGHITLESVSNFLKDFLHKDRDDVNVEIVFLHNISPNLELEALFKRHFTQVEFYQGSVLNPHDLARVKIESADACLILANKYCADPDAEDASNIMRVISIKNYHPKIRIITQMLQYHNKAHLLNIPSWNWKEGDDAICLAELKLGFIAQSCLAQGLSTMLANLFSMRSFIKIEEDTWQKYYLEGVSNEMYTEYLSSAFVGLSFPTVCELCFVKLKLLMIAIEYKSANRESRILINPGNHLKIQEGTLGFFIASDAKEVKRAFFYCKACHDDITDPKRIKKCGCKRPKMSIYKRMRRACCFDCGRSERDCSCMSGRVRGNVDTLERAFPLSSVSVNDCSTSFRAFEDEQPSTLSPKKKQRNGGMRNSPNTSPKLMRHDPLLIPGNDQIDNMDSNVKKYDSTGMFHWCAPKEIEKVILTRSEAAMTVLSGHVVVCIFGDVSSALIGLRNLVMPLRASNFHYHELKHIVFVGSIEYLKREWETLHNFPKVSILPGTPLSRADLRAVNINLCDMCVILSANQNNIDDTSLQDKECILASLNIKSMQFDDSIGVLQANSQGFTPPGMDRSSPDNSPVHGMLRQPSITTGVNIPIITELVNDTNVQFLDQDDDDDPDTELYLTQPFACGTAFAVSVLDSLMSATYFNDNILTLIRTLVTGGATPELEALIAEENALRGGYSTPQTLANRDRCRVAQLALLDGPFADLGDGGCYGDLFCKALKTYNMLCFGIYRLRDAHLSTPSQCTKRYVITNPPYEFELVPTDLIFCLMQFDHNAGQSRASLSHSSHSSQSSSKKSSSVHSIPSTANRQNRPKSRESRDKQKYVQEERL

| Binder | V1/2 (half-maximal activation voltage, Boltzmann fit, inside-out patches, 30 µM Ca2+) [mV] |
| --- | --- |
| B1 | 45.4 |
| B2 | -55 |
| B3 | 20 |

Source: patent US20050255559A1 (published 2005)
